Measured values as given in patent publication US20090238821A1.

What was measured:
Amyloid-beta 1-40 = Amyloid-beta 1-40 (UniProt P05067); experiment: BIAcore 2000, antibody captured by rabbit anti-mouse, peptide flowed
Amyloid-beta 1-42 = Amyloid-beta 1-42 (UniProt P05067); experiment: as above
human Aβ peptide (human) [1] = molecular target: human Aβ peptide (human) (UniProt P05067); experiment: BIAcore 2000, 266 against 4G8
human Aβ peptide (human) [2] = molecular target: human Aβ peptide (human) (UniProt P05067); experiment: plasma of APP V717F mice given 200 or 600 µg Mab 266 i.v., RIA (in vivo)
human Aβ peptide (human) [3] = molecular target: human Aβ peptide (human) (UniProt P05067); experiment: dialysis chamber, 1 mL human CSF against 1 µg Mab 266, 25 kD cutoff, 3 hours, ELISA
human Aβ peptide (human) [4] = molecular target: human Aβ peptide (human) (UniProt P05067); experiment: dialysis chamber, 1 mL human CSF against 1 µg Mab 266, 100 kD cutoff, 3 hours, ELISA
[5] = molecular target: β-amyloid peptide (1-42) conjugated to BSA (UniProt P05067); experiment: competitive ELISA on Aβ1-42-BSA, competitor of biotinylated Mu266 (0.3 µg/ml), first set
[6] = molecular target: β-amyloid peptide (1-42) conjugated to BSA (UniProt P05067); experiment: competitive ELISA on Aβ1-42-BSA, competitor of biotinylated Mu266 (0.3 µg/ml), second set
human Aβ peptide (human) [7] = molecular target: human Aβ peptide (human) (UniProt P05067); experiment: plasma of APP V717F mice given 1 mg Mab 266 i.v., non-denaturing gel, blot with biotin-3D6 and 125I-streptavidin against Aβ40/266 standards (in vivo)

| Kd (Amyloid-beta 1-40) | Kd (Amyloid-beta 1-42) | fold difference in affinity between 266 and 4G8 (human Aβ peptide (human) [1]) | concentration of Aβ bound to Mab 266 in plasma (human Aβ peptide (human) [2]) | percent of Aβ peptide sequestered in the bottom chamber (human Aβ peptide (human) [3]) | percent of Aβ peptide drawn across the membrane (human Aβ peptide (human) [4]) | IC50 [5] | IC50 [6] | amount of Aβ peptide bound to Mab 266 in plasma (human Aβ peptide (human) [7]) | Substance |
| --- | --- | --- | --- | --- | --- | --- | --- | --- | --- |
| 0.023 µM | 0.024 µM | – | – | – | – | – | – | – | Mab 4G8 (antibody) |
| 4 µM | 4 µM | 6000 fold | > 100 ng/mL | 50% | 100% | 4.7 µg/mL | 3.87 µg/mL | 100 ng/mL | mouse monoclonal antibody 266 |
